What was measured:
Optimum pH for ABTS = type: biochemical
[1] = Turnover with 5′-hydroxypropranolol as substrate, HPLC; type: biochemical; conditions: 0.03 μM enzyme, 0.4 mM 5′-hydroxypropranolol, 2 mM H2O2, absence of ascorbic acid
Description: FIG. 14 Turnover rates of AaeUPO, JaWa and SoLo. […] The disappearance of the product 5′-hydroxypropranolol can be observed due to the formation of its corresponding quinone by means of the peroxidase activity of the enzyme.
The reactions were analysed by means of chromatography in reverse phase (HPLC). The equipment was composed of a tertiary pump (Varian-Agilent Technologies, USA) coupled to an autosampler (Merck Millipore, MA, USA); for the separation, a Zorbax Eclipse plus C18 column (15 cm×4.6 cm) at 40° C. was used and the detection was performed using a photodiode detector (PDA) (Varian, Agilent Technologies, USA). The mobile phase selected was a gradient from 10% methanol and 90% ddH2O (in both cases with 0.1% of acetic acid) up to 90% methanol and 10% ddH2O at a flow rate of 0.8 mL/min. The reaction was quantified at 280 nm (based on HPLC standards). […] The standard deviations were less than 5% in all cases.

[2] = Conversion of 1-naphthol into 1,4-naphthoquinone, HPLC; type: biochemical; conditions: versus PaDa-I
Description: Each reaction was performed in triplicate and were stopped with HCl (pH<1) at different times (between 60 and 600 s). Inset: polymeric colorimetric products derived from 1.4-naphthoquinone, 1: PaDa-I and 2: JaWa.
This effect can also be observed at first glance, since the polymeric products produced in the reaction with the PaDa-I variants (SEQ ID NO: 18) (due to non-enzymatic quinone regrouping processes) are coloured (FIG. 4). There are hypotheses in literature on the possibility that UPO is similar to CPO in the existence of different sites with peroxidase activity in its structure. To suppress these alternative peroxidation pathways, the structure of the AaeUPO1 crystal was closely examined and a variant was built by mean of directed mutagenesis in Trp24 (FIG. 5A), a highly oxidable residue, found on the protein surface, using the PaDa-I (SEQ ID NO: 18) and JaWa (SEQ ID NO: 24) variants as templates, as described in the section on materials and methods.

[3] = Optimum pH for naphthalene; type: biochemical
[4] = Thermostability assay (T50), culture supernatants, residual activity with ABTS; type: physicochemical
Description: An individual S. cerevisiae colony was selected with the corresponding clone (grown in a SC drop-out minimal medium plate: 100 mL of 6.7% yeast nitrogen base, 100 mL of 19.2 g/L uracil-free amino acid supplement, 100 mL of 20% glucose, 1 mL of 25 g/L chloramphenicol and ddH2O up to 1,000 mL) was inoculated in 2 mL of selective minimal medium (as in the SC plate medium, but with 20 g of bacto agar and rafinose instead of galactose) and was incubated for 48 hour at 30° C. and 220 RPM. An aliquot of this culture was taken such that, upon inoculating it in 5 mL of new minimal medium, optical density at 600 nm would have a value of 0.25 (optical density, OD600=0.25). This starter was incubated until completing two full growth cycles (between 6 and 8 hours), at which time 1 mL of cells were taken to inoculate 9 mL of expression medium in a 100 mL flask (OD600=0.1). This culture of each clone was incubated for 72 hours at 25° C. and 220 RPM (at peak UPO activity; OD600=25-30), the cells were separated by centrifugation (10 minutes at 4,500 RPM and 4° C.) and supernatant was filtered (using a glass and nitrocellulose filter with a pore size of 0.45 μm). Appropriate dilutions of the supernatants were prepared so that aliquots of 20 μL would give rise to a linear response in kinetic mode. 50 μL of supernatant were used for each point in a temperature gradient created by means of thermocyclator, from 30 to 80° C. After incubating for 10 minutes, the aliquots were cooled in ice for 10 minute and tempered at room temperature for 5 minutes. […] The thermostability values were calculated in accordance with the ratio between the residual activities incubated at different temperatures and the value of initial activity at room temperature. The value of T50 was determined as the value of the temperature at which the protein loses 50% of it initial activity after incubating for 10 minutes.
An individual S. cerevisiae colony was selected with the corresponding clone (grown on a SC drop-out minimal medium plate: 100 mL of 6.7% yeast nitrogen base, 100 mL of 19.2 g/L uracil-free amino acid supplement, 100 mL of 20% glucose, 1 mL of 25 g/L chloramphenicol and ddH2O up to 1,000 mL), was inoculated in 3 mL of selective minimal medium (like the SC plate medium, but with 20 g of bacto agar and rafinose instead of galactose) and incubated for 48 hours at 30° C. and 220 RPM. […] The thermostability values were calculated in accordance with the ratio between the residual activities incubated at different temperatures and the value of initial activity at room temperature. The value of T50 was determined as as the temperature value at which the protein loses 50% of its initial activity after incubating for […].

[5] = Isoelectric point by two-dimensional electrophoresis; type: physicochemical
Description: The analyses were performed using an Autoflex III MALDI-TOF-TOF unit with smartbeam laser (Bruker Daltonics). The samples were evaluated in positive mode. The method was calibrated using BSA with standard, thereby covering a range of 15,000 to 70,000 Da. In order to determine the isoelectric point of the UPO variants, 8 μg of pure enzyme were subjected to two-dimensional electrophoresis. These experiments were carried out at the Proteomic and Genomic Service of the Biological Research Centre (CIB-CSIC, Spain).

Optimum pH for DMP = type: biochemical

B1: JaWa: PaDa-I variant with added mutations G241D and R257K, SEQ ID NO: 24 (protein)
chain: MKYFPLFPTLVYAVGVVAFPDYASLAGLSQQELDAIIPTLEAREPGLPPGPLENSSAKLVNDEAHPWKPLRPGDIRGPCPGLNTLASHGYLPRNGVATPAQIINAVQEGFNFDNQAAIFATYAAHLVDGNLITDLLSIGRKTRLTGPDPPPPASVGGLNEHGTFEGDASMTRGDAFFGNNHDFNETLFEQLVDYSNRFGGGKYNLTVAGELRFKRIQDSIATNPNFSFVDFRFFTAYGETTFPANLFVDGRRDDGQLDMDAARSFFQFSRMPDDFFRAPSPRSDTGVEVVVQAHPMQPGKNVGKINSYTVDPTSSDFSTPCLMYEKFVNITVKSLYPNPTVQLRKALNTNLDFLFQGVAAGCTQVFPYGRD
Optimum pH for ABTS (Optimum pH for ABTS): 4.0 | 5′-hydroxypropranolol maintained without oxidising [1]: oxidise practically the entire product | reduction in the ratio 1,4-naphthoquinone:1-naphthol [2]: ~1.5 fold | Optimum pH for naphthalene [3]: 6.0 | Thermal stability, T50 ([4]; culture supernatants, temperature at which the enzyme retains 50% of its activity after 10 minutes of incubation): 59.7 °C | increase in thermostability (T50) with respect to PaDa-I ([4]; versus PaDa-I variant): 2 °C | pI [5]: 5.3 | Optimum pH for DMP (Optimum pH for DMP): 6.0

— patent publication US10876098B2, “Polynucleotide, host cell and a method to recombinantly produce the protein encoded by said polynucleotide having peroxygenative activity” (CONSEJO SUPERIOR DE INVESTIGACIONES CIENTIFICAS (CSIC), priority 2015, dated 2020)
